From the nanobody polyreactivity screen of Harvey et al. (2022)

Test: yeast display, Sf9 membrane polyspecificity reagent, FACS + sequencing; frameworks hold sequencing errors
Procedure, shortened: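 In a synthetic yeast display library (Saccharomyces cerevisiae BJ5465), nanobody expression was induced with galactose for 36–48 hours. FACS gates were set low and high (top ~1%) using anti-HA fluorescence for expression and streptavidin fluorescence for binding of the Sf9 membrane reagent. Each polyreactivity label is drawn from the gate of origin.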

| Sequence | polyreactivity (PSR sort gate) |
| --- | --- |
| QVQLVESGGGLVQAGGSLRLSCAASGSTFDVNAMGWYRQAPGKERELVAAISFSGGSTYYADSVKGRFTISRDNAKNTVYLQMNSLKPEDTAVYYCADYDYWGQGTQVTVSS | low polyreactivity |
| QVQLVESGGGLVQAGGSLRLSCAASGSTFDVYAMGWYRQAPGKERELVAAISRSGGSTYYADSVKGRFTISRDNAKNTVYLQMNSLKPEDTAVSYCNARLARWGSDEYNYWGQGTQVTVSS | low polyreactivity |
| QVQLVESGGGLVQAGGSLRLSCAASGSTFDVYAMGWYRQAPGKERELVAAITWIGGSTYYADSVKGRFTISRDNAKNTVYLQMNSLKPDDTAVYYCARHDYGWVDYWGQGTQVTVSS | high polyreactivity |
| QVQLVESGGGLVQAGGSLRLSCAASGSTFDVYAMGWYRQAPGKERELVATITGSGGSTYYADSVKGRFTISRDNAKNTVYLQMNSLKPEDTAVYYCAARYPVSGGYDYWGQGTQVTVSS | low polyreactivity |
| QVQLVESGGGLVQAGGSLRLSCAASGSTFDYNAMGWYRPAPGKERELVAVISSGTRTYYADSVKGRFTISRDNAKNTVYLQMNSLKPEDTAVYFCNKRFYPEHYYWGQGTLVTVSS | high polyreactivity |
| QVQLVESGGGLVQAGGSLRLSCAASGSTFDYNAMGWYRQAPGKEREFVAAISFSGSSTYYADSVKGRFTISRDNAKNTVYLQMNSLKPEDTAVYYCAKKVFASYRGYGYWGQGTQVTVSS | high polyreactivity |
| QVQLVESGGGLVQAGGSLRLSCAASGSTFDYNAMGWYRQAPGKERELVAAITTVGITYYADSVKGRFTISRDNAKNTVYLQMNSLKPEDTAVYYCAARSVRYGGRYDYWGQGTQVTVSS | high polyreactivity |
| QVQLVESGGGLVQAGGSLRLSCAASGSTFDYNAMGWYRQAPGKERELVAGISGGSSTNYADSVKGRFTISRDNAKNTVYLQMNSLKPEDTAVYYCNAQRLPLRYEMDYWGQGTQVTVSS | low polyreactivity |
| QVQLVESGGGLVQAGGSLRLSCAASGSTFDYNTMGWYRQAPGKERELVAAISESGGSTYYADSVKGRFTISRDNAKNTVYLQMNSLKPEDTAVYYCATDDFGGYFGEYDYWGQGTQVTVSS | low polyreactivity |
| QVQLVESGGGLVQAGGSLRLSCAASGSTFDYYAMGWYRQAPGKEREFVASINWNGARTYYADSVKGRFTISRDNAKNTVYLQMNSLKPEDTAVYYCAAYTKRYLYNYWGQGTQVTVSS | high polyreactivity |
| QVQLVESGGGLVQAGGSLRLSCAASGSTFDYYAMGWYRQAPGKERELVAAISSGGSTNYADSVKGRFTISRDNAKNTVYLQMNSLKPEDTAVYYCAKDHAYTSAPHQYASEYYYWGQGTQVTVSS | low polyreactivity |
| QVQLVESGGGLVQAGGSLRLSCAASGSTFDYYAMGWYRQAPGKERELVAAISWSGGSTYYADSVKGRFTISRDNEKNTVYLQMNSLKPEDTAVYYCAALYSYISGGYIYDYWGQGTQVTVSS | low polyreactivity |
| QVQLVESGGGLVQAGGSLRLSCAASGSTFDYYAMGWYRQAPGKERELVAAITSTGRTYYADSVKGRFTISRDNAKNTVYLQMNSLKPEDTAVYYCAADLPWGPLFDYWGQGTQVTVSS | low polyreactivity |
| QVQLVESGGGLVQAGGSLRLSCAASGSTFDYYTMGWYRQAPGKERELVAAISSSGGSTYYADSVTGRFTISRDNAKNTVYLQMNSLKPEDTAVYDCAARGYHYSYLRGDTGYYYWGQGTQVTVSS | low polyreactivity |
| QVQLVESGGGLVQAGGSLRLSCAASGSTFEDNAMGWYRQAPGKERELVAVITWTGGSTYYADSVKGRFTISRDNAKNTVYLQMNSLKPEDTAGYYCAADGVVPGRFFWPAHAYDYCGQGTQVTVSS | low polyreactivity |
| QVQLVESGGGLVQAGGSLRLSCAASGSTFEFYAMGWYRQAPGKERELVASITSSSGPTYYADSVKGRFTISRDNAKNTVYLQMNSLKPEDTAVYYCAKRPIRYYHLLRGNYWGQGTQVTVSS | low polyreactivity |
| QVQLVESGGGLVQAGGSLRLSCAASGSTFEGNAMGWYRQAPGKERELVAAINSVAITNYADSVKGRFTISRDNAKNTVYLQMNSLKPEDTAVYYCNAQTNRPWGWPIGYDYWGQGTQVTVSS | low polyreactivity |
| QVQLVESGGGLVQAGGSLRLSCAASGSTFEGNDMGWYRQAPGKERELVASITSDTSTYADSVKGRFTISRDNAKNTVYLQMNSLKPEDTAVYYCNTGSYAETYYWITDPYDYWGQGTQVNVSS | low polyreactivity |
| QVQLVESGGGLVQAGGSLRLSCAASGSTFEIYAMGWYRQAPGKERELVAAITRSGRTNYADSVKGRFTISRDNAKNTVYLQMNSLKPEDTAVYYCAAGVWGRDRKYGYWGQGTQVTVSS | high polyreactivity |
| QVQLVESGGGLVQAGGSLRLSCAASGSTFELYAMGLYRQAPGKERELVASITGDSTNYADSVKGRFTISRDNAKNTVYLQMNSLKPEDTAVYYCAAEYVPYYEYESWGQGTQVTVSS | low polyreactivity |
| QVQLVESGGGLVQAGGSLRLSCAASGSTFEPNAMGWYRQAPGKERELVAAIDTDASTYYADSVKGRFTISRDNAKNTVYLQMNSLKPEDTAVYYCAADYYIAITYYDGDDYWGQGTQVTVSS | low polyreactivity |
| QVQLVESGGGLVQAGGSLRLSCAASGSTFEPNGMGWYRQAPGKETELVAVITSGRTNYADSVKGSFTISRDNAKNTVYLQMNSLKPEDTAVYYCNAEGNGIYDYWGQGTQVTVSS | low polyreactivity |

| Sequence | polyreactivity (PSR sort gate) |
| --- | --- |
| QVQLVESGGGLVQAGGSLRLSCAASGSTFEQNAMGWYRPAPGKEREFVAAITGSGGSTYYADSVKGRFTISRDNAKNTVYLQMNSMKPEDTAVYYCAADIQDGWYWWDIYDYWGQGTQVTVSS | low polyreactivity |
| QVQLVESGGGLVQAGGSLRLSCAASGSTFERYAMGWYRQEPGKEREFVAAISAIGDSTYYADSVKGRFTITRDNAKNTVYLQMNILKPEDTAVYYCAARYTPYHIGRGYYYWGQGTQVTVSS | high polyreactivity |
| QVQLVESGGGLVQAGGSLRLSCAASGSTFETNAMGWYRQAPGKERELVAAIRWSTGNTYYADSVKGRFTISRDNAKNTVYLQMNSLKPEDTAVYDCAAYKGKHDKEGYWGQGTQVTVSS | low polyreactivity |
| QVQLVESGGGLVQAGGSLRLSCAASGSTFETYAMGWYRQAPGKERELVATISLSGGRTYYADSVKGRFTISRDNAKNTVYLQMNSLKPEDTAVYYCNADGYGNVGGGDSWGQGTQVTVSS | low polyreactivity |
| QVQLVESGGGLVQAGGSLRLSCAASGSTFEVYAMGWYRQAPGKERELVAAINSRGTSTYYADSVKGRFTISRDNAKNTVYLQMNSLKPEDTAVYYCNAVRDWGPSQVYDGMDYWGQGTQVTVSS | low polyreactivity |
| QVQLVESGGGLVQAGGSLRLSCAASGSTFEYNAMGWYRQAPGKERELVASSTNYADSVKGRFTISRDNAKNTVYFQMNSLKPEDTAVYYCAREQGVNRNNDYWGQGTQVTVSS | low polyreactivity |
| QVQLVESGGGLVQAGGSLRLSCAASGSTFEYNAMGWYRQAPGKERELVASSTNYADSVKGRFTISRDNAKNTVYLQMNSLKPEDTAVYYCAREQGVNRNHDYRGQGTQVTVSS | low polyreactivity |
| QVQLVESGGGLVQAGGSLRLSCAASGSTFEYYVMGWYRQAPGKERELVAAISGSGGGTYYADSVKGRFTISRDNEKNTVYLQMNSLKPEDTAVYYCAAVATQEKYDYWGQGTQVTVSS | low polyreactivity |
| QVQLVESGGGLVQAGGSLRLSCAASGSTFFDYAMGWYRQAPGKERELVAAISSGGSTKYADSVKGRFTISRDNAKNTVYLQMNSLKPEDTAVYYCAATRWNGRRGYGYWGQGTQVTVSS | high polyreactivity |
| QVQLVESGGGLVQAGGSLRLSCAASGSTFFGNAMGWYRQAPGKERELVAAITSGGSTNYADSVKGRFTISRDNAKNTVYFQMNSLKPEDTAVYYCAKPSRWGWTGFYAYDYWGQGTQVTVSS | low polyreactivity |
| QVQLVESGGGLVQAGGSLRLSCAASGSTFFGNAMGWYRQAPGKERELVAAITSGGSTNYADSVKGRFTISRDNAKNTVYLQMNSLKPEDTAVYYCAKPSRWGWTGFYAYDYWGQGTQVTVSS | low polyreactivity |
| QVQLVESGGGLVQAGGSLRLSCAASGSTFFGYAMGWYRQAPGKERELVATISSGDSTNYADSVKGRFTISRDNAKNTVYLQMNSLKPEDTAVYYCAAQGGDGVLALYYYWGQGTQVTVSS | low polyreactivity |
| QVQLVESGGGLVQAGGSLRLSCAASGSTFFGYVMGWDRQAPGKERELVAAIRSSGGSTYYADSVKGRFTISRDNAKNTVYLQINSLKPEDTAVYYCAASYRYDAYSHYDYWGQGTQVTVSS | low polyreactivity |
| QVQLVESGGGLVQAGGSLRLSCAASGSTFFHYARGWYRQAPGKERELVAAISGSGGSTYYADSVKGRFTISRDNAKNTVYLQMNSLKPEDTAVYYCNARVWHYTSRTTFDYWGQGTQVTVSS | low polyreactivity |
| QVQLVESGGGLVQAGGSLRLSCAASGSTFFKNAMGWYRQAPGKERELVAAISTGGGSTTYADSVKGRFTISRDNAKNTVYLQMNSLKPEDTAVYYCAAVTLSSTYGGHDYWGQGTQVTVSS | high polyreactivity |
| QVQLVESGGGLVQAGGSLRLSCAASGSTFFKYDMGWYRQAPGKDRELVAVITWSGGTTFYADSVKGRFTFSRDNAKNTVYLQMNSLKPEDTAVYYGAADYYGYRYDYWGQGTQVTVSS | low polyreactivity |
| QVQLVESGGGLVQAGGSLRLSCAASGSTFFLYDKGWYRQAPGKERELVAAITLSGGSTYYADSVKGRFTISRDNAKNTVYLQMNSLNPEDTAVYYCADKRHGSEVGRGRDYWGQGTQVTVSS | high polyreactivity |
| QVQLVESGGGLVQAGGSLRLSCAASGSTFFLYGMGWYRQAPGKERELVAAITWNGGSTYYADSVKGRFTISRDNAKNTVYLQMNSLKPEDTAVYYCAADYYGYFSTPYDYWGQGTQVTVSS | low polyreactivity |
| QVQLVESGGGLVQAGGSLRLSCAASGSTFFNYAMGLYRQAPGKERELVAAITSVGSTYYADSVKGRFTISRDNAKYTVYLQMNSLKPEDTAVYYCNAESYFWDFYDYDHWGQGTQVTVSS | low polyreactivity |
| QVQLVESGGGLVQAGGSLRLSCAASGSTFFPNAMGWYRQAPGKERELIADISISGGSTRYADSVKGRFTISRDNEKNTVYLQMNSLKPEDTAVYYCAVRRSAFYARFGRNYWGQGTQVTVSS | low polyreactivity |
| QVQLVESGGGLVQAGGSLRLSCAASGSTFFPYAMGWYRQAPGKERELVADITYSGASTYYADSVKGRFTISRDNAKNTVYLQMNSLKPEDTAVYYCAALVWYGYYSLGQGTQVTVSS | low polyreactivity |
